This experiment deals with SARS-CoV-2 HexaPro spike protein, wild type (SARS-CoV-2 wild type (GenBank …, UniProt A0A679G9E9, F817 to proline | A892 to proline | A899 to proline | A942 to proline | K986 to …)). In words: BLI. The note with it: both partners purified.

B1: S2-E12 (antibody, V domains shown)
VH: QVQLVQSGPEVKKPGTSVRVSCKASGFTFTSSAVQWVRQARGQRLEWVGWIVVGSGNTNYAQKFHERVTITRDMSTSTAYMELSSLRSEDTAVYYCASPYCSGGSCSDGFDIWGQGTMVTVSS
VL: DIVLTQTPGTLSLSPGERATLSCRASQSVSSSYLAWYQQKPGQAPRLLIYGASSRATGIPDRFSGSGSGTDFTLTISRLEPEDFAVYYCQQYVGLTGWTFGQGTKVEIK
Regarding B1, the binding result is given as “binds”.
